US20170183380A1 (published 2017)
Where no end group is shown, it is not given here.

B1: LTVSPWY (SEQ ID NO: 1) peptide-liposome, post inserted liposome 200 Ligand (peptide)
peptide: C(Maleimide‑PEG2000‑DSPE)GGGLTVSPWY
modifications: not fully specified; also: order of spacer and peptide assumed
B2: LTVSPWY (SEQ ID NO: 1) peptide-liposome, post inserted liposome 25 Ligand (peptide)
peptide: C(Maleimide‑PEG2000‑DSPE)GGGLTVSPWY
modifications: not fully specified; also: order of spacer and peptide assumed
B3: LTVSPWY (SEQ ID NO: 1) peptide-liposome, post inserted liposome 100 Ligand (peptide)
peptide: C(Maleimide‑PEG2000‑DSPE)GGGLTVSPWY
modifications: not fully specified; also: order of spacer and peptide assumed
B4: LTVSPWY (SEQ ID NO: 1) peptide-liposome, post inserted liposome 50 Ligand (peptide)
peptide: C(Maleimide‑PEG2000‑DSPE)GGGLTVSPWY
modifications: not fully specified; also: order of spacer and peptide assumed

These binders were tested against HER2 on TUBO cells (mice cell line), HER2-overexpressing (UniProt P06494 23-1257) (assay: cell-based or functional assay).
Sequence of HER2 on TUBO cells (mice cell line), HER2-overexpressing (P06494 23-1257): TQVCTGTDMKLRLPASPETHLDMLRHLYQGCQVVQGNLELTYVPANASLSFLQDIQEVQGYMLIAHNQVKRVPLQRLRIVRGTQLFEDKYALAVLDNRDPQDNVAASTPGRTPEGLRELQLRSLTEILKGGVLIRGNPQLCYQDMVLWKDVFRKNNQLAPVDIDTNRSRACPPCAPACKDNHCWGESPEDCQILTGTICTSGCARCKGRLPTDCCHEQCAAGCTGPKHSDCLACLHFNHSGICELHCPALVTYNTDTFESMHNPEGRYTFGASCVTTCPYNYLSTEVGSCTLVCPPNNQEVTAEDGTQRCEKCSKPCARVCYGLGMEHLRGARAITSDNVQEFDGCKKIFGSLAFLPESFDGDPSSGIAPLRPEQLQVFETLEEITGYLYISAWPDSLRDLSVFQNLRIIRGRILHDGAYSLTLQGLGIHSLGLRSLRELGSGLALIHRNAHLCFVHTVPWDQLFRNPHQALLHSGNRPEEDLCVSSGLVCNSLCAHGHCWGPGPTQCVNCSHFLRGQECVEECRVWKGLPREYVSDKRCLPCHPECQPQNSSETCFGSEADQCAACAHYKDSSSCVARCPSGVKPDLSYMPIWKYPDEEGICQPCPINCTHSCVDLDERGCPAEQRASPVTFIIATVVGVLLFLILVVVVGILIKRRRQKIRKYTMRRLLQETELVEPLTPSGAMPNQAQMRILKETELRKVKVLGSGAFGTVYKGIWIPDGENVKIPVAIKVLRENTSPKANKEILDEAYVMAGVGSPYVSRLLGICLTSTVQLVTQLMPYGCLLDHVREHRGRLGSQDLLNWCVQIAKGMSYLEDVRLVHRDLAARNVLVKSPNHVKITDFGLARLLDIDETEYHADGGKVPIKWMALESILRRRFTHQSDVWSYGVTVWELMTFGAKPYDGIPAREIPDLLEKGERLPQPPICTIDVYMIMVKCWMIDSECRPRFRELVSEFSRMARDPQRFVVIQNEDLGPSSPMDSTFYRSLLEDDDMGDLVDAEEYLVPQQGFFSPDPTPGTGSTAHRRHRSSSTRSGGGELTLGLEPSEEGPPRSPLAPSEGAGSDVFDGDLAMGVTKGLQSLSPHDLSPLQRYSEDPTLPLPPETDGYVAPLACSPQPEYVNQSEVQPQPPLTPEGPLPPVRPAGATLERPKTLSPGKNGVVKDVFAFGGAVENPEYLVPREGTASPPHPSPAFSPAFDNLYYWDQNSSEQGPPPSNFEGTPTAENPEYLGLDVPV
B1 was tested, and the “IC50 (cytotoxicity, MTT assay), TUBO cells, 3 hours” value (“IC50 … TUBO cells, 3 hours” below) was 6.5 µM and the “IC50 (cytotoxicity, MTT assay), TUBO cells, 6 hours” value (from here on “IC50 … TUBO cells, 6 hours”) was 2.5 µM. In the case of B2, the “IC50 … TUBO cells, 3 hours” value is reported as 11.1 µM and the “IC50 … TUBO cells, 6 hours” value is reported as 5.5 µM. In the case of B3, the “IC50 … TUBO cells, 3 hours” value is reported as 8.08 µM and the “IC50 … TUBO cells, 6 hours” value is reported as 3.9 µM. For B4, the “IC50 … TUBO cells, 3 hours” value was 9.7 µM and the “IC50 … TUBO cells, 6 hours” value was 4.6 µM.

The binders below were run against HER2 on HER2-overexpressing breast cancer cells (SK-Br-3: human cell line) (human, UniProt P04626 23-1255) (assay: cell-based or functional assay).
For B1, the “IC50 (cytotoxicity, MTT assay), SKBR3 cells, 3 hours” value (shortened to “IC50 … SKBR3 cells, 3 hours”) was 15.2 µM and the “IC50 (cytotoxicity, MTT assay), SKBR3 cells, 6 hours” value (“IC50 … SKBR3 cells, 6 hours” for short) was 4.9 µM. In the case of B2, the “IC50 … SKBR3 cells, 3 hours” value is reported as 24.9 µM and the “IC50 … SKBR3 cells, 6 hours” value is reported as 12.8 µM. B3 was tested, and the “IC50 … SKBR3 cells, 3 hours” value was 17.9 µM and the “IC50 … SKBR3 cells, 6 hours” value was 6.07 µM. In the case of B4, the “IC50 … SKBR3 cells, 3 hours” value is reported as 21.5 µM and the “IC50 … SKBR3 cells, 6 hours” value is reported as 10.4 µM.
